± gives the uncertainty stated by the source.
Experiment: amyloid nucleation score (Sup35N fusion, yeast selection) (log enrichment); library NNK3; higher = more nucleation; inactive = no reads after selection
Summary of the method: (§1)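 The nucleation score is a DiMSum log enrichment of output over input reads, centred on the mode score of non-aggregating sequences. Sequences under 100 input reads were excluded, and reads came from Illumina sequencing of plasmid inserts. Psi-negative yeast expressing Sup35N fused to peptides of 20 random codons were induced with 100 μM copper sulfate for 24 hours and grown 7 days at 30°C on medium lacking adenine and uracil. Random libraries had three technical output replicates.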
With HYLRHHIAILSLATGLMETE the amyloid nucleation score was “inactive”. In the case of YRFLMLITYYFCIV, the amyloid nucleation score is reported as 2.11 ± 0.071. With NLWVADWIEHHYPSRSSIFA the amyloid nucleation score was “inactive”. In the case of CQHGGCALQHHTYRCEVGAG, the amyloid nucleation score is reported as “inactive”. For FDFTGYLKCLKCTSSCTMVL, the amyloid nucleation score was “inactive”. TYGNENSSLILSCTCYIMLS gave an amyloid nucleation score of 2.41 ± 0.082. With GMPKSWYMPVRMMQASSSAF the amyloid nucleation score was “inactive”. For NDHPVNSWPVGYSADINQVL, the amyloid nucleation score was “inactive”. In the case of SFSLNRRWFNIGS, the amyloid nucleation score is reported as “inactive”. With LVSLLVWPYLAWCQGCYSVE the amyloid nucleation score was “inactive”. For DYVIVCAMEKLNRTVLWAQG, the amyloid nucleation score was “inactive”. With GDMKGSISCIIKKEVINVQC the amyloid nucleation score was “inactive”. FRLKY showed an amyloid nucleation score of 0.12 ± 0.68. With VGLVMNCNKFYVLWFDQIGK the amyloid nucleation score was 2.27 ± 0.068. With AAIYYLSRAECNFSRYKNYL the amyloid nucleation score was “inactive”. CVATNYSYCSIFLHRA gave an amyloid nucleation score of 2.01 ± 0.079. With SCNRSSSV the amyloid nucleation score was “inactive”. For VFWYKYVFSCNIIQGLLRMK, the amyloid nucleation score was “inactive”. With CLDPRGRNRAGPAVIGGPSV the amyloid nucleation score was “inactive”. In the case of PRLAIKAHGVWVGKSFIGET, the amyloid nucleation score is reported as “inactive”. In the case of SRVHEVLNFCTY, the amyloid nucleation score is reported as “inactive”. MVNLSLCLNVVAEGLNFDRF showed an amyloid nucleation score of 1.66 ± 0.091. With IALLWQAHLWRHDWKFYFDS the amyloid nucleation score was “inactive”. With ILRLTCLIAKHTRAVNMDLQ the amyloid nucleation score was “inactive”.

Experiment: amyloid nucleation score (Sup35N fusion, yeast selection) (log enrichment); library NNK2; higher = more nucleation; inactive = no reads after selection
Summary of the method: as §1
With LMHFSFSVAGRAGNELLFIG the amyloid nucleation score was 2.46 ± 0.22. With RIVIFFFTCIYPIWIRNTWP the amyloid nucleation score was -1.18 ± 1.1. With AIKESRCDIVIRRKWSSLKT the amyloid nucleation score was -0.02 ± 1.1. MVPVFTGWRICVGGNCLARR showed an amyloid nucleation score of -0.162 ± 0.34. With YNTQVCEVVMWGQHPTTLSS the amyloid nucleation score was -0.418 ± 0.41. In the case of TTVSWENGSRVINIVFILMF, the amyloid nucleation score is reported as 5.045 ± 0.04. With FHLEPLKWSWVST the amyloid nucleation score was -0.837 ± 1.1. Substance TRFFTSLK has an amyloid nucleation score of -0.402 ± 0.61. With RGRCFWLEFTFISWLSNDVA the amyloid nucleation score was “inactive”. For LCFYPVTTCKPIFRPLYVLP, the amyloid nucleation score was 0.562 ± 0.45. Substance FTTPVSFSFVLRLITTPRTY has an amyloid nucleation score of -1.29 ± 0.75. MSGWVAGLHLDVCGVDYAGG gave an amyloid nucleation score of 1.9 ± 0.29. In the case of FLGEAHFI, the amyloid nucleation score is reported as 0.078 ± 0.4. MSSSVHLGIFITQCVKTRQL gave an amyloid nucleation score of 2.25 ± 0.22. Work on GHFRFEHCVSVSLSSIFSNE yielded an amyloid nucleation score of 1.55 ± 0.11. Substance VNMLEQKGRMSDETPCTATP has an amyloid nucleation score of 0.107 ± 0.79. With YRVYLVFYDFVFVFYMSKYL the amyloid nucleation score was “inactive”. Substance ASLTASAGVVFFYTPTRRYN has an amyloid nucleation score of 3.16 ± 0.14. Work on STCTLKCWRWMPWTSFSFRC yielded an amyloid nucleation score of 1.3 ± 0.21. Work on SLRWL yielded an amyloid nucleation score of -0.18 ± 0.74. CPTNIRP gave an amyloid nucleation score of -1.18 ± 0.63. Work on EFFFRLMTDPTN yielded an amyloid nucleation score of -0.376 ± 0.63. VHKYSSGMDYRSVVNLETLG gave an amyloid nucleation score of 0.192 ± 1. In the case of IYRWPFVHPYMPLTRVAPDS, the amyloid nucleation score is reported as “inactive”. SKMYMPAVWMDGPSPQTTMW gave an amyloid nucleation score of 0.73 ± 0.37. For FVIVNN, the amyloid nucleation score was -0.658 ± 1. AYYALCL showed an amyloid nucleation score of -0.92 ± 1.1. VSVARSSFARKDYCEFFRPG showed an amyloid nucleation score of 1.17 ± 0.28. Work on PINKGKWCSTNFNAGITRI yielded an amyloid nucleation score of -0.01 ± 0.61. In the case of QAFPDLTVVRACYMHLL, the amyloid nucleation score is reported as 0.54 ± 0.25. Work on SSRQTVGNTPASDLLRDYCW yielded an amyloid nucleation score of 0.388 ± 0.38. Work on QFDTPNTT yielded an amyloid nucleation score of -0.169 ± 0.54. In the case of FCVAGQLLVS, the amyloid nucleation score is reported as 0.228 ± 0.25. In the case of NLVCNSLFRDDKVSTELTEM, the amyloid nucleation score is reported as “inactive”. In the case of GGLWTGLVSASKEFSK, the amyloid nucleation score is reported as “inactive”. Substance FFYHLCASVRLA has an amyloid nucleation score of -1.11 ± 0.78. For ILGLPSINSSISLHKTITDP, the amyloid nucleation score was 2.86 ± 0.056. In the case of NVSVGVPLQRTILLDLCTGT, the amyloid nucleation score is reported as “inactive”. In the case of YYFDPS, the amyloid nucleation score is reported as -0.961 ± 0.62. HKGYCVRIIT showed an amyloid nucleation score of -0.335 ± 0.26. Substance SVRGRNDESAMLTLQRELRY has an amyloid nucleation score of -0.343 ± 1.1. NNNCGRLGVYI gave an amyloid nucleation score of -0.962 ± 1. With KTISNYVAGN the amyloid nucleation score was “inactive”. For LYSCWVSCLEGRLVCGPLTH, the amyloid nucleation score was -0.65 ± 0.39. For SIMGRIKIAIHVLRS, the amyloid nucleation score was 4.12 ± 0.091. Work on LTYLFVQSSVAWLSLMIH yielded an amyloid nucleation score of 0.253 ± 0.6. VIHAFIMYSFGTKDV gave an amyloid nucleation score of 0.885 ± 0.32. Work on TRSSNNPPGMVDT yielded an amyloid nucleation score of -0.959 ± 0.38. Substance VTNYVEFCTGFRICGVSLPC has an amyloid nucleation score of 8.387 ± 0.036. FRYCAGLMTYRLEFG gave an amyloid nucleation score of 2.49 ± 0.068. SRFISLSSEDVSALNTCNNR showed an amyloid nucleation score of 1.25 ± 0.61. SALHCISLDVHRIFGSKNAR gave an amyloid nucleation score of 1.36 ± 0.46. With ILNLLLVCLRIFDGLYLTRY the amyloid nucleation score was -1.06 ± 1.1. In the case of YFGSIIIYRIPAVPQILSVN, the amyloid nucleation score is reported as “inactive”. Substance AYCRGFYYIIALVSSPEQKR has an amyloid nucleation score of 0.175 ± 0.34. NWWLTHVHLVSFYVVSWGWV gave an amyloid nucleation score of 3.35 ± 0.12. For ILGISCVFY, the amyloid nucleation score was 7.227 ± 0.072. Work on LFNEDACTFLTMCANIKVGQ yielded an amyloid nucleation score of 4.97 ± 0.081. Work on DDIFNWFGVLGSNPLMVSVG yielded an amyloid nucleation score of 0.811 ± 0.33. LRFRKMAKKCNYVVRVVLGF gave an amyloid nucleation score of -0.273 ± 0.29. With MIDWGVIV the amyloid nucleation score was -0.149 ± 0.76. Work on GILGQGDYYLRN yielded an amyloid nucleation score of -0.422 ± 1. Substance NLNFPMRSSILDCAGDNVRR has an amyloid nucleation score of 0.49 ± 0.8. For EVILTLIRYNV, the amyloid nucleation score was 4.21 ± 0.1. HLSRPGDAYTVMFT showed an amyloid nucleation score of 5.845 ± 0.036. With YDLSLVWWSTMFFRLCSLGC the amyloid nucleation score was -0.601 ± 0.41. For VAYLNLCLS, the amyloid nucleation score was “inactive”. IVNSKFKHAGVHPFDSL showed an amyloid nucleation score of -0.125 ± 0.79. YNWVNTPGHVNL gave an amyloid nucleation score of -1.4 ± 0.62. Work on MMGWFPRKLES yielded an amyloid nucleation score of -0.125 ± 0.41. For VGLCSPWKHALFD, the amyloid nucleation score was 3.33 ± 0.073. In the case of AGYDATW, the amyloid nucleation score is reported as 0.461 ± 0.65. AKPRYN showed an amyloid nucleation score of 0.221 ± 0.42. In the case of MWLASSDNYHNMALVCFCVL, the amyloid nucleation score is reported as “inactive”. For KVEALDVTRGIVPGKSLAVR, the amyloid nucleation score was 0.249 ± 0.55. Substance NYILSMLCKMNARCLVTWRI has an amyloid nucleation score of 0.712 ± 0.4. In the case of ASLGPRFTDRTVQSHVNTRC, the amyloid nucleation score is reported as 0.147 ± 0.41. For MNYLCASSGVLVKN, the amyloid nucleation score was -0.055 ± 1.1. In the case of SSNALKGDGSFGQNEVESAK, the amyloid nucleation score is reported as -0.043 ± 0.32. Substance HQMRFPGSPMATVGSLRTCR has an amyloid nucleation score of -0.528 ± 0.42. For YFTNFWLLCLLSG, the amyloid nucleation score was 4.34 ± 0.079. Substance RVVFKHENLDMWCWMS has an amyloid nucleation score of 1.47 ± 0.11. GWWVCWVL showed an amyloid nucleation score of -1.07 ± 1.1. VTRSLLLCHFSTCCFSALTW showed an amyloid nucleation score of -0.086 ± 0.32. In the case of LYWSLCDFCN, the amyloid nucleation score is reported as “inactive”. VNFVLGVL gave an amyloid nucleation score of 0.086 ± 0.19. Work on IYWMIIFWGFE yielded an amyloid nucleation score of -0.089 ± 1.1. With YKCRDLFGGRQINREHYLCY the amyloid nucleation score was -1.26 ± 0.62. With LYCSSLFKVYRGVQTRAKLR the amyloid nucleation score was “inactive”. Work on PPTTT yielded an amyloid nucleation score of 0.621 ± 0.43. With DSFLTLTCGFRSNALYCWGV the amyloid nucleation score was -0.663 ± 0.55. For IRWAQTFILLFVCSSARPTQ, the amyloid nucleation score was 0.712 ± 0.36. ANSVNRSKDCTYFVFHRF showed an amyloid nucleation score of 5.436 ± 0.054. Substance SPFFVMLIITFTRMVEDLRM has an amyloid nucleation score of -0.683 ± 1.1. Substance YETCSFKNPTFFPRNLYKMW has an amyloid nucleation score of -0.103 ± 0.46. In the case of FWDRMGLNEEVFQGSLSSAW, the amyloid nucleation score is reported as “inactive”. Substance LNQSKFGKVGTSSVFWLFYN has an amyloid nucleation score of -1.01 ± 0.31. With HCLVIFNEIYRL the amyloid nucleation score was 7.137 ± 0.071. For MSRWTKIGNFDNIPSIPLVV, the amyloid nucleation score was -0.228 ± 0.36. YHLLGALYNDAWVIWETTVL gave an amyloid nucleation score of -0.116 ± 0.76. WILYLRMNYWKRTCYHAIGM gave an amyloid nucleation score of -0.214 ± 0.22.

Reference: the supplement of paper PMC12042874
